{"source": "paper PMC3753628", "about": "“Recognition and processing of double-stranded DNA by ExoX, a distributive 3′–5′ exonuclease”", "key": {"[1]": {"target": "T1, ExoX (NT167) (Escherichia coli K12, UniProt P0AEK0 1-167)", "T1 sequence": "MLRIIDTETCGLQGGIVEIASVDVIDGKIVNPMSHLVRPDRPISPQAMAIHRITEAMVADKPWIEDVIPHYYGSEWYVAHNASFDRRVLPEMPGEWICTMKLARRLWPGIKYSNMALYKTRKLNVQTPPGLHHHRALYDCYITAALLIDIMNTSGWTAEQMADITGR", "test": "X-ray crystallography; two undefined metal ions (MeA, MeB), probably inactive (Ni2+ or Na+); SeMet ExoX; 2:1 protein:DNA; Crystals by hanging drop, 16 C: complex I 0.1 M Tris-HCl pH 8.0, 0.2 M NaCl, 20% PEG 3350; complexes II and III 0.1 M MES pH 6.3, 17% PEG 6000; protein:DNA 1:0.6, 30 min at 4 C, gel filtration", "conditions": "protein: recombinant; (pET24a, Ni-NTA; chain copies: 2; text says 17 bp)"}, "[2]": {"target": "T1, ExoX (NT167)", "test": "X-ray crystallography; 2 ExoX monomers per DNA; metal at MeA site; Crystals by hanging drop, 16 C: complex I 0.1 M Tris-HCl pH 8.0, 0.2 M NaCl, 20% PEG 3350; complexes II and III 0.1 M MES pH 6.3, 17% PEG 6000; protein:DNA 1:0.6, 30 min at 4 C, gel filtration", "conditions": "protein: recombinant; (pET24a, Ni-NTA); chain copies: 2; blunt"}, "[3]": {"target": "T1, ExoX (NT167)", "test": "X-ray crystallography; Crystals by hanging drop, 16 C: complex I 0.1 M Tris-HCl pH 8.0, 0.2 M NaCl, 20% PEG 3350; complexes II and III 0.1 M MES pH 6.3, 17% PEG 6000; protein:DNA 1:0.6, 30 min at 4 C, gel filtration", "conditions": "protein: recombinant; (pET24a, Ni-NTA); chain copies: 2; self-annealed, 2 copies of S2; 5' overhang 5 nt, mispaired 3' terminal nucleotides"}}, "data": [{"binder": "3' overhanging dsDNA (complex I) (dsDNA) DNA 1: CGGATCCACAATGACCT DNA 2: GTCATTGTGGATCCGAG", "values": [{"measurement": "binding result", "setting": "[1]", "value": "binds"}]}, {"binder": "12 bp blunt-ended dsDNA (complex II) (dsDNA) DNA 1: CTCGAATCTACA DNA 2: TGTAGATTCGAG", "values": [{"measurement": "binding result", "setting": "[2]", "value": "binds"}]}, {"binder": "3' recessed mismatch-containing dsDNA (complex III) (dsDNA) DNA 1: GTCATTGTGGATCCGAG DNA 2: GTCATTGTGGATCCGAG", "values": [{"measurement": "binding result", "setting": "[3]", "value": "binds"}]}]}
